In article PMC2744881 (Journal of molecular biology, 2009):

T1: SufD of the purified SufB-SufC-SufD complex (E. coli, UniProt P77689 1-423)
T1 sequence: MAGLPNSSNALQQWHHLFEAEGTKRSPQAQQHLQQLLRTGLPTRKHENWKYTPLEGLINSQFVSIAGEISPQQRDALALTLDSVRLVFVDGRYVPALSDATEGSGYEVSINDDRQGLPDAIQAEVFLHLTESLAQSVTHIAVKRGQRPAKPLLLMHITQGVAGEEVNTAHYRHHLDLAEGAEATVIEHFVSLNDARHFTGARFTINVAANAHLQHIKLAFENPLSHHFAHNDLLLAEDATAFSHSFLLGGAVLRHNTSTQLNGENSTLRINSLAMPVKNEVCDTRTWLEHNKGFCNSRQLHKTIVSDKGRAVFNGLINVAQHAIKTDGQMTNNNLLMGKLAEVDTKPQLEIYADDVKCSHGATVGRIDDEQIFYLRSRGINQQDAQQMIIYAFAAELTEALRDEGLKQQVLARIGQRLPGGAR

T2: N-terminally His10-tagged SufC protein (E. coli, UniProt P77499 1-248)
T2 sequence (looked up): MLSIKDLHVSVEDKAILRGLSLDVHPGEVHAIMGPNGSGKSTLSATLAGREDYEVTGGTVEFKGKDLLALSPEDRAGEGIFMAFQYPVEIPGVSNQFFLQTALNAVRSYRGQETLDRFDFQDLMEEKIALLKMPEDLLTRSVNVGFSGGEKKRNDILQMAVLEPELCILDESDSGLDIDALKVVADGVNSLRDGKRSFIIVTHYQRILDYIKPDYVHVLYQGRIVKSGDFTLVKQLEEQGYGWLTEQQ

B1: SufB of the purified SufB-SufC-SufD complex (natural protein, E. coli, UniProt P77522 1-495, looked up)
chain: MSRNTEATDDVKTWTGGPLNYKEGFFTQLATDELAKGINEEVVRAISAKRNEPEWMLEFRLNAYRAWLEMEEPHWLKAHYDKLNYQDYSYYSAPSCGNCDDTCASEPGAVQQTGANAFLSKEVEAAFEQLGVPVREGKEVAVDAIFDSVSVATTYREKLAEQGIIFCSFGEAIHDHPELVRKYLGTVVPGNDNFFAALNAAVASDGTFIYVPKGVRCPMELSTYFRINAEKTGQFERTILVADEDSYVSYIEGCSAPVRDSYQLHAAVVEVIIHKNAEVKYSTVQNWFPGDNNTGGILNFVTKRALCEGENSKMSWTQSETGSAITWKYPSCILRGDNSIGEFYSVALTSGHQQADTGTKMIHIGKNTKSTIISKGISAGHSQNSYRGLVKIMPTATNARNFTQCDSMLIGANCGAHTFPYVECRNNSAQLEHEATTSRIGEDQLFYCLQRGISEEDAISMIVNGFCKDVFSELPLEFAVEAQKLLAISLEHSVG

Tests used:
[1] = molecular target: T1, SufD of the purified SufB-SufC-SufD …; assay: SEC
[2] = molecular target: B1; assay: SEC
crystal structure = molecular target: the molecule itself; assay: crystal structure
[3] = molecular target: T2, N-terminally His10-tagged SufC protein; assay: SEC
SEC = molecular target: the molecule itself; assay: SEC

Binder	stoichiometry N [1]	stoichiometry N (SEC)	further results
SufC of the purified SufB-SufC-SufD complex (natural protein, E. coli) MLSIKDLHVSVEDKAILRGLSLDVHPGEVHAIMGPNGSGKSTLSATLAGREDYEVTGGTVEFKGKDLLALSPEDRAGEGIFMAFQYPVEIPGVSNQFFLQTALNAVRSYRGQETLDRFDFQDLMEEKIALLKMPEDLLTRSVNVGFSGGEKKRNDILQMAVLEPELCILDESDSGLDIDALKVVADGVNSLRDGKRSFIIVTHYQRILDYIKPDYVHVLYQGRIVKSGDFTLVKQLEEQGYGWLTEQQ	~2	–	stoichiometry N [2]: ~2
B1	~1	–	–
SufD protein (natural protein, E. coli, UniProt P77689 1-423, looked up) MAGLPNSSNALQQWHHLFEAEGTKRSPQAQQHLQQLLRTGLPTRKHENWKYTPLEGLINSQFVSIAGEISPQQRDALALTLDSVRLVFVDGRYVPALSDATEGSGYEVSINDDRQGLPDAIQAEVFLHLTESLAQSVTHIAVKRGQRPAKPLLLMHITQGVAGEEVNTAHYRHHLDLAEGAEATVIEHFVSLNDARHFTGARFTINVAANAHLQHIKLAFENPLSHHFAHNDLLLAEDATAFSHSFLLGGAVLRHNTSTQLNGENSTLRINSLAMPVKNEVCDTRTWLEHNKGFCNSRQLHKTIVSDKGRAVFNGLINVAQHAIKTDGQMTNNNLLMGKLAEVDTKPQLEIYADDVKCSHGATVGRIDDEQIFYLRSRGINQQDAQQMIIYAFAAELTEALRDEGLKQQVLARIGQRLPGGAR	–	–	stoichiometry N (crystal structure): 2; stoichiometry N [3]: ~1
N-terminal His-tag SufD with H360S mutation (natural protein, E. coli) MAGLPNSSNALQQWHHLFEAEGTKRSPQAQQHLQQLLRTGLPTRKHENWKYTPLEGLINSQFVSIAGEISPQQRDALALTLDSVRLVFVDGRYVPALSDATEGSGYEVSINDDRQGLPDAIQAEVFLHLTESLAQSVTHIAVKRGQRPAKPLLLMHITQGVAGEEVNTAHYRHHLDLAEGAEATVIEHFVSLNDARHFTGARFTINVAANAHLQHIKLAFENPLSHHFAHNDLLLAEDATAFSHSFLLGGAVLRHNTSTQLNGENSTLRINSLAMPVKNEVCDTRTWLEHNKGFCNSRQLHKTIVSDKGRAVFNGLINVAQHAIKTDGQMTNNNLLMGKLAEVDTKPQLEIYADDVKCSSGATVGRIDDEQIFYLRSRGINQQDAQQMIIYAFAAELTEALRDEGLKQQVLARIGQRLPGGAR	–	2	–
N-terminal His-tag SufD with H360C mutation (natural protein, E. coli) MAGLPNSSNALQQWHHLFEAEGTKRSPQAQQHLQQLLRTGLPTRKHENWKYTPLEGLINSQFVSIAGEISPQQRDALALTLDSVRLVFVDGRYVPALSDATEGSGYEVSINDDRQGLPDAIQAEVFLHLTESLAQSVTHIAVKRGQRPAKPLLLMHITQGVAGEEVNTAHYRHHLDLAEGAEATVIEHFVSLNDARHFTGARFTINVAANAHLQHIKLAFENPLSHHFAHNDLLLAEDATAFSHSFLLGGAVLRHNTSTQLNGENSTLRINSLAMPVKNEVCDTRTWLEHNKGFCNSRQLHKTIVSDKGRAVFNGLINVAQHAIKTDGQMTNNNLLMGKLAEVDTKPQLEIYADDVKCSCGATVGRIDDEQIFYLRSRGINQQDAQQMIIYAFAAELTEALRDEGLKQQVLARIGQRLPGGAR	–	2	–
wild-type SufD (reference of the gel filtration of His-tagged SufD proteins) (natural protein, E. coli) MAGLPNSSNALQQWHHLFEAEGTKRSPQAQQHLQQLLRTGLPTRKHENWKYTPLEGLINSQFVSIAGEISPQQRDALALTLDSVRLVFVDGRYVPALSDATEGSGYEVSINDDRQGLPDAIQAEVFLHLTESLAQSVTHIAVKRGQRPAKPLLLMHITQGVAGEEVNTAHYRHHLDLAEGAEATVIEHFVSLNDARHFTGARFTINVAANAHLQHIKLAFENPLSHHFAHNDLLLAEDATAFSHSFLLGGAVLRHNTSTQLNGENSTLRINSLAMPVKNEVCDTRTWLEHNKGFCNSRQLHKTIVSDKGRAVFNGLINVAQHAIKTDGQMTNNNLLMGKLAEVDTKPQLEIYADDVKCSHGATVGRIDDEQIFYLRSRGINQQDAQQMIIYAFAAELTEALRDEGLKQQVLARIGQRLPGGAR	–	2	–
